Test results published in PMC8391104, “Molecular mechanism of Mad1 kinetochore targeting by phosphorylated Bub1” (EMBO Reports, 2021).
Substitutions are numbered along the chain they refer to. Names and notes keep the numbering of the source. Where no end group is shown, it is not given here. [ ]: non-standard residue; d: D form. pT = C[C@@H](OP(=O)(O)O)[C@H](N)C(=O)O; pS = N[C@@H](COP(=O)(O)O)C(=O)O

T1: Mad1^CTD QRI triple mutant (Q627A, R650A, I643A) (human, UniProt Q9Y6D9 597-718, Q627A | I643A | R650A)
T1 construct: also called triple alanine mutant; source: E. coli Rosetta 2 (DE3), purified (Strep-Tactin, TEV cleavage, Resource Q, Superdex 75); not shown: double Strep, N-terminal, cleaved; His6, N-terminal, cleaved
T1 sequence (looked up): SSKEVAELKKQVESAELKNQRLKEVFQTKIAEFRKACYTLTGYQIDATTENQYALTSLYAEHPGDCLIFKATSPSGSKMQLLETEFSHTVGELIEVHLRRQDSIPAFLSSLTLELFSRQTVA

T2: Mad1^CTD I643A (human, UniProt Q9Y6D9 597-718, I643A)
T2 construct: also called alanine substitution of Ile643; source: E. coli Rosetta 2 (DE3), purified (Strep-Tactin, TEV cleavage, Resource Q, Superdex 75); not shown: double Strep, N-terminal, cleaved; His6, N-terminal, cleaved
T2 sequence (looked up): T1 sequence (looked up) with A31Q, A54R

T3: Mad1^CTD R617A (human, UniProt Q9Y6D9 597-718, R617A)
T3 construct: also called R617A mutant of Mad1; source: E. coli Rosetta 2 (DE3), purified (Strep-Tactin, TEV cleavage, Resource Q, Superdex 75); not shown: double Strep, N-terminal, cleaved; His6, N-terminal, cleaved
T3 sequence (looked up): T1 sequence (looked up) with R21A, A31Q, A47I, A54R

T4: Mad1^CTD QRRI quadruple mutant (Q627A, R630A, I643A, R650A) (human, UniProt Q9Y6D9 597-718, Q627A | R630A | I643A | R650A)
T4 construct: source: E. coli Rosetta 2 (DE3), purified (Strep-Tactin, TEV cleavage, Resource Q, Superdex 75); not shown: double Strep, N-terminal, cleaved; His6, N-terminal, cleaved
T4 sequence (looked up): T1 sequence (looked up) with R34A

T5: Mad1^CTD Q627A (human, UniProt Q9Y6D9 597-718, Q627A)
T5 construct: also called alanine substitution of Gln627; source: E. coli Rosetta 2 (DE3), purified (Strep-Tactin, TEV cleavage, Resource Q, Superdex 75); not shown: double Strep, N-terminal, cleaved; His6, N-terminal, cleaved
T5 sequence (looked up): T1 sequence (looked up) with A47I, A54R

T6: Mad1^CTD K619A (human, UniProt Q9Y6D9 597-718, Substituting Ala for Lys619)
T6 construct: also called Ala for Lys619; source: E. coli Rosetta 2 (DE3), purified (Strep-Tactin, TEV cleavage, Resource Q, Superdex 75); not shown: double Strep, N-terminal, cleaved; His6, N-terminal, cleaved
T6 sequence (looked up): T1 sequence (looked up) with K23A, A31Q, A47I, A54R

T7: Mad1^CTD R650A (human, UniProt Q9Y6D9 597-718, R650A)
T7 construct: also called alanine substitution of Arg650; source: E. coli Rosetta 2 (DE3), purified (Strep-Tactin, TEV cleavage, Resource Q, Superdex 75); not shown: double Strep, N-terminal, cleaved; His6, N-terminal, cleaved
T7 sequence (looked up): T1 sequence (looked up) with A31Q, A47I

T8: Mad1^CTD R630A (human, UniProt Q9Y6D9 597-718, R630A)
T8 construct: also called Mad1 R630A mutant; source: E. coli Rosetta 2 (DE3), purified (Strep-Tactin, TEV cleavage, Resource Q, Superdex 75); not shown: double Strep, N-terminal, cleaved; His6, N-terminal, cleaved
T8 sequence (looked up): T1 sequence (looked up) with A31Q, R34A, A47I, A54R

B1: phosphorylated Bub1^CD1 peptide with an additional N-terminal tryptophan (peptide)
peptide: WKVQP[pS]P[pT]VHTKEALGFIMNMFQAPTS
notes: additional N-terminal tryptophan, added to confirm the peptide concentration; Bub1 conserved domain 1 (CD1), human, stated as residues 455-479; also called Bub1^CD1 peptide with an N-terminal tryptophan residue; source: synthetic peptide (Designer Bioscience UK, 95% purity)
B2: Mad1 C-terminal domain (Mad1^CTD) homodimer, residues 597-718 (domain or fragment, human, UniProt Q9Y6D9 597-718, looked up)
chain: T1 sequence (looked up) with A31Q, A47I, A54R
notes: the C-terminal residue is Ala718; For NMR the same construct was made 15N-labelled or 2H,13C,15N-labelled in M9 minimal medium; also called wild-type Mad1^CTD; WT Mad1^CTD; source: E. coli Rosetta 2 (DE3), purified (Strep-Tactin, TEV cleavage, Resource Q, Superdex 75); not shown: double Strep, N-terminal, cleaved; His6, N-terminal, cleaved
B3: Mad1^CTD L618A (domain or fragment, human, UniProt Q9Y6D9 597-718, looked up)
chain: T1 sequence (looked up) with L22A, A31Q, A47I, A54R
notes: Poorly expressed, aggregated easily, eluted broadly; the authors suspect mis-folding of the dimer; also called L618A mutant; source: E. coli Rosetta 2 (DE3), purified (Strep-Tactin, TEV cleavage, Resource Q, Superdex 75); not shown: double Strep, N-terminal, cleaved; His6, N-terminal, cleaved
B4: Mad1^CTD F629A (domain or fragment, human, UniProt Q9Y6D9 597-718, looked up)
chain: T1 sequence (looked up) with A31Q, F33A, A47I, A54R
notes: Poorly expressed, prone to aggregate; the authors suspect a disrupted Mad1 conformation; also called F629A mutant; source: E. coli Rosetta 2 (DE3), purified (Strep-Tactin, TEV cleavage, Resource Q, Superdex 75); not shown: double Strep, N-terminal, cleaved; His6, N-terminal, cleaved
B5: doubly phosphorylated Bub1^CD1 peptide (pSer459-pThr461) (peptide)
peptide: KVQP[pS]P[pT]VHTKEALGFIMNMFQAPTS
notes: Bub1 conserved domain 1 (CD1), human, stated as residues 455-479; also called pSer459-pThr461 peptide; source: synthetic peptide (Designer Bioscience UK, 95% purity)

What was measured:
[1] = target: B2; assay: AUC; sedimentation equilibrium; 20 µM Mad1^CTD with 20 or 40 µM Bub1^CD1 peptide; 20 mM HEPES pH 7.5, 100 mM NaCl, 1 mM TCEP; 20°C; two-species model; details: both partners purified
[2] = target: the molecule itself; assay: as above
[3] = target: the molecule itself; assay: SEC-MALS; 100 µl of purified protein at 0.5-2.0 mg/ml on Superdex 200 Increase 10/300 GL, 0.5 ml/min
[4] = target: T1, Mad1^CTD QRI triple mutant (Q627A, …); assay: ITC; Bub1^CD1 peptide (0.3-1.5 mM) titrated into Mad1 (30-100 µM) in the cell; 20°C; 20 mM HEPES pH 7.5, 100 mM NaCl, 1 mM TCEP; single-site model; stoichiometry counted on dimeric Mad1^CTD; details: both partners purified
Mad1^CTD I643A = target: T2, Mad1^CTD I643A; assay: as above; details: both partners purified
Mad1^CTD R617A = target: T3, Mad1^CTD R617A; assay: as above; details: both partners purified
[5] = target: T4, Mad1^CTD QRRI quadruple mutant (Q627A, …); assay: as above; details: both partners purified
Mad1^CTD Q627A = target: T5, Mad1^CTD Q627A; assay: as above; details: both partners purified
Mad1^CTD K619A = target: T6, Mad1^CTD K619A; assay: as above; details: both partners purified
Mad1^CTD R650A = target: T7, Mad1^CTD R650A; assay: as above; details: both partners purified
Mad1^CTD R630A = target: T8, Mad1^CTD R630A; assay: as above; details: both partners purified

Binder: B1
stoichiometry N [1]: 1 peptide per Mad1^CTD dimer

Binder: B2
stoichiometry N [2]: 2

Binder: B3
stoichiometry N [3]: 2

Binder: B4
stoichiometry N [3]: 2

Binder: B5
Kd [4]: 14.5 µM
binding result (Mad1^CTD I643A): binds
Kd (Mad1^CTD R617A): 3000 µM
Kd [5]: 25 µM
binding result (Mad1^CTD Q627A): binds
Kd (Mad1^CTD K619A): 10 µM
binding result (Mad1^CTD R650A): binds
Kd (Mad1^CTD R630A): 10 µM
